The nature of this data set: yeast display, Sf9 membrane polyspecificity reagent, FACS + sequencing; frameworks hold sequencing errors. Summed up: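 A synthetic nanobody library was expressed on Saccharomyces cerevisiae BJ5465 by galactose induction for 36–48 hours. The library was stained for 1 hour at 4 °C with 10% biotinylated, detergent-solubilized Sf9 membrane reagent and enriched with streptavidin microbeads before FACS. Low and high (top ~1%) gates were set on anti-HA fluorescence for expression and streptavidin fluorescence for reagent binding, and each polyreactivity label reflects the gate of origin.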
As for “QVQQQESGGGLVQAGGSLRLSCAASGTIFQLTVMGRYRQAPGKDRELVASIDYGGNTNYADSVKGRFTISRDNAKNTVYLQMNCRKPEDTAVYYCAASSDSWTTHPYWGQGTQVTVRS”, the “polyreactivity (PSR sort gate)” value is given as “low polyreactivity”.

For the sequence “QVQLVESGGGLVQAGGSLRLTCAASGSIFYVNAMGWYRQAPGKERELVAAISVRGGRTYYADSVKGRFTISRDNAKNTVYLQMNSLKPEDTAVYYCATRISTVGRYDYWGQGTQVTVSS”, the “polyreactivity (PSR sort gate)” value is given as “high polyreactivity”. For “QVQVVESGGGLVQAGGSLRLSCAASGSTFPVYAMGWYRQAPGKERELVAAISRSGASTYADSVKGRFTISRDNAKNTVYLQMNSLKPEDTAVYYCNKDPGNVSSYTGGGYWGQGTQVTVSS”, the “polyreactivity (PSR sort gate)” value is recorded as “low polyreactivity”. To “QVQLVESGGGLVQAGGSLRLSCAASGRTFVNNAMGWYRQAPGKERELVAAISRSGGRTYYADSVKGRFTISRDNAKNTVYLQMNSLKPEDTAVYYCAADSSYSRKYDYWGQGTQVTVSS” belongs “low polyreactivity”.

For the sequence “QVQLVESGGGLVQAGGSLRLSCAASGSNFFFNTMGWYRQAPGKERELVAVITSGGSTYYADSVKGRFTISRDNAKNTVYLQMNSLKPEDTAVYYCAARYLPYRRIKYDYWGQGTQVTVSS”, the “polyreactivity (PSR sort gate)” value is listed as “low polyreactivity”. To “QVQLVESGGGLVQAGGSLRLSCAASGRTFQTYAMGWYRQAPGKERELVAAISKSGGGTYYADSVKGRFTISRDNAKNTVYLQMNSLKPEDTAVYYCATAGYHYRAWGGRYDYWGQGTQVTVSS” belongs “high polyreactivity”; to “QVQLVESGGGLVQAGGSLRLSCAASGIIFANYAMGWYRQAPGKERELVAAITSSGSTYYADSVKGRFTISRDNAKNTVYLQMNSLKPEDTAVYYCAARRRGRFYYWGQGTQVTVSS”, “high polyreactivity”.

On to “QVQLVESGGGLVQAGGSLRLICAASGFIFRTNAMGWYRQAPGKQRELVAAISRSGNTYYADSVKGRFTISRDNAKNTVYLQMNSLKPEDTAVYYCAAQSVRWYSTFKYYYWGQGTQVTVSS”, for which the “polyreactivity (PSR sort gate)” value is recorded as “high polyreactivity”. Turning to “QVQLVESGGGLVQARGSLRLSCAAYGLTLRGYAMGWYRQAPGKERELVAAISGSGTSTYYADSVKWRFTISRDNAKNTVYLQMNSLKPEDTAVYYCAAVKVRKGLEMGYWGQGTQVTVSS”, the “polyreactivity (PSR sort gate)” value is reported as “high polyreactivity”.

Consider “QVQLVESGGGLVQAGGSLRLSCAASGGIFYHYTMGWYRQAPGKERELVASIRGSGGRTYYADSVKGRFTLSRDNAKNTVDLQMNSLKPEDTAVYYCNARGSWYQPTYDYWGQGTQVTVST”, for which the “polyreactivity (PSR sort gate)” value is listed as “high polyreactivity”. On to “QVQLVESGGGLVQAGGSLRLSCAASGYTFLAYAMGWYRQAPGKERELVAAISSGGRTYYADSVKGRFTISRDNAKNTVYLQMHSLKREDTAVYYCAAYPLRYRQYWGFVYWGQGTQVTVSS”, for which the “polyreactivity (PSR sort gate)” value is recorded as “high polyreactivity”.

As for “QVQLVESGGGLVQAGGSLRLSCAASGRTFETNAMGWYRQAPGKERELVAAISRSGGSTRYADSVKGRFTISRDNAKNTVYLQMNSLKPEDTAVYYCAAETWYRGYKFDYWGQGTQVTVSS”, the “polyreactivity (PSR sort gate)” value is recorded as “high polyreactivity”. To “QVQLVESGGGLVQAGGSLRLSCAASGFNIASYDMGWYRQAPGKERELVAAISKGGGRTYYADSVKGRFTISRDIAKNTVYLQMNSLKPEDTAVDYCAAEYRGYLHYHFQYLFDYWGQGTQVNVSS” belongs “low polyreactivity”; to “QVQLVESGGGLVQAGGSLRLSCAASGSTFNTNAMGWYRQAPGKERELVAAITSSGGGTYYADSVKGRFTISRDNAKNTVYLQMNSLKPEDTAVYYCNAVSGWYNSITYDYWGQGTQVTVSS”, “high polyreactivity”; to “QVQLVESGGGLVQAGGSLRLSCAASGRTFDDNAMGWYRQAPGKERELVASISSGTSTNYADSVKGRFTISRDNAKNTVYVQMNCLKPEDTAVYYCNAYGPIWYTAVLGVGRYYGWTDYWGQGTQVTVSS”, “low polyreactivity”.

“QVQLVESGVGLVQAGCSLRLSCAASGSTFVLNAMGWYLQAAGKERELVAAISRGGASTYSADSVKGRFTISRDYAKNTVYLQMNSLKPEDTAVYYCNASGYGPGVVIYLVVYDYWGQGTQVTVSS”: the “polyreactivity (PSR sort gate)” value is “low polyreactivity”. Under “QVQLVESGGGLVQAGGSLRLSCAASGSTFTGNAMGWYRQAPGKERELVAAISRSGGSTFYADSVKGRFTISRDNAKNTVYLQMNSLKPEDTAVYYCATRYVVDMDYWGQGTQVTVSS” stands “high polyreactivity”. To “QVQLVESGGGLVQAGGSLRLTCAASGSIFTGYTMGWYRQAPGKERELVASISRRGGRTYYADSVKGRFTISRDNAKNTVYLQMNSLKPEDTAVYYCAVDRVPWRYQDSYNYWGQGTQVTVSS” belongs “high polyreactivity”; to “QVQLVESGVGLVQAGGSLRLSCAASGSTFSNNAMGWYIQAPGKERELVAVITGDGGSTYYADSVKGRFTISRDIAKNTVYLQTNSLKPEDTAVYSCNARSSRYSRFRQRFGYWGQVTQVTVSS”, “low polyreactivity”. To “QVQRVDSGGGLVQAGGSLRLSCAASGSTFPGYAMGWYRQAPGKERELVAAISKRGGSTRYADSVKGRFTISRDNAKNTVYLQMNSLKPEDTAVYYCAASYSYSGSGGGYWGQVTQVTVSS” belongs “high polyreactivity”. “QVHLVESGGGLVQAGGSLRISCAASGRTFQVYAMGRYRQAPGKERELVAAISLTGGGTYYADSVKGRFTISRDYANNTVYLQMNSLKPEDTAVYYCAVRRRTHLGFLYEYWGQGTQVTVSS”: the “polyreactivity (PSR sort gate)” value is “high polyreactivity”. As to “QVQLQESGDGLVQAVGSLRLSCAASGYISGYYYMGWYRQAPGKERELVAGIEAFGSSTNYADCVKGRFTISRDNAKNTVYLQMNSPKPEDTAVYYCAAEYDDWDYHWYWGQGTQVTVSS”, the “polyreactivity (PSR sort gate)” value is reported as “low polyreactivity”. Regarding “QVQLVESGGGLVQAGGSLRLSCAASGSIFGYYAMGWYRQAPGKERELVAAISWSGGSTYYADSVKGRFTISRDNAKNTVYLQMNSLKPEDTAVYYCAATSRGNDSQKYYYWGQGTQVTVSS”, the “polyreactivity (PSR sort gate)” value is “low polyreactivity”. Under “QVQLVESGGGLVQAGGSLLLSCAASGRTFWPYAMGWYRQAPGKERELVAAITSDGSTTYADSVTGRFTISRDNAKNTVYLQMNSLTPEDTAVYFCAAYGYYYYQTIPMDYWGQGTQVTVSS” stands “low polyreactivity”; under “QVQLVESGGGLVQAGGSLRLSCAAYGSIFWYYAMGWYRQAHGKERELVAAISASGSSTYYADSVKGRLTISRDNAKNPVYLQMNSLNPEDTAVYYCAGTYILYNDWLYHYFPEEYDSWGQGTQVTVSS”, “low polyreactivity”; under “QVQLVESGGGLVQAGGSLRLSCAASGRTFRRYTMGWYRQAPGKERELVATISWSGGTTYADSVKGRFTISRDNAKNTVYLQMNSLKPEDTAVYFCAAVSYVYRYYWGQGTQVTVSS”, “low polyreactivity”. To “HVQLVESGGGLVQAGGSLRLSCASSGSIFWANAMGWYRQAPGKERELVATITSGGRTYYADSVKGRFTISRDNAKNTVYLQMNSLKPEDTAVYYCARVPPQYRWGRRLVYVHVDYWGQGTQVTVSS” belongs “low polyreactivity”; to “QVQLVESGGGLVQAGGSLRLSCAASGRIFHANAMGWYRQAPGKERELVAGISRNGGRTYYADSVKGRFTISRDNAKNTVYLQMNSLKPEDTAVYYCAKGHKFRFDYWGQGTQVTVSS”, “high polyreactivity”.

In the case of “QVQLVESGGGLVQAGGSLRLSCAASGRIFRYNAMGWYRQAPGKERELVATITDGGSTSYADSVKGRFTISRDNAKNTVYLQMNSLKPEDTAVYYCARDPLPSYWKVWSRPTFDYWGQGTQVTVSS”, the “polyreactivity (PSR sort gate)” value is recorded as “low polyreactivity”. To “QVQLVESGGGLVQAGGILRLSCAASGINFLYYAMGWYREAPGKEMELVAAINGSGGNTYYADSVKGRFTISLDNAKNTVYLQMNRLKPEDTAVYYCNADFFVYSYQQWDEYYDYWGQGTQVTVSS” belongs “low polyreactivity”; to “QVQLVESGGGLVQAGGSLRLSCAASGGTFVYSAMGWYRQAPGKERELVAAINWSGGSTYYADSVKGRFTISRDNAKNTVYLQMNILKAEDTAVLLLQRSGLRRSGVWFDYWGQGTQVTVSS”, “low polyreactivity”. For “QVQLVESGGGLVQAGGSLRLSCAASGSTSRTYAMGWYRQAPGKERELVAAINSGGTTYYADSVKGRFTISRDNAKNTVYLQMNSLKPEDTAVYYCARRDFWWSRRIFGYWGQGTQVTVSS”, the “polyreactivity (PSR sort gate)” value is given as “high polyreactivity”. For the sequence “QVQLVESGGGVVQAGGMLRLSCAASGTTFDVYAMGGYRQAPGKEREFVAAITTSGGSTYYADSVKGRFSISRDNAKNTVYLEMYSLKPEVTAVYYCAAVWWKSFQGSSYRMNYWGQGTQVTVSS”, the “polyreactivity (PSR sort gate)” value is on record as “high polyreactivity”.

Turning to “QVQLVESGGGLVQAGGSLRLSCAASGFIFGDYVMGRYRQAPGKEREVVAAITRRGGRTNYADSVKGRFTISRDNAKNTVFLQMNSLIPEDNAVFYCNAQSGVVADDYWGQGSQVTVSS”, the “polyreactivity (PSR sort gate)” value is “high polyreactivity”. To “QVQLVESGGGLVQAGGSLRLSCAASGRIFPRNTMGWYRQAPGKERELVAAISTRGGSTYYADSVKGRSTISRDNAKNNVYLQMNSLKPEDTAVYYCAAGRRFPAIYSTGNYWGQGTQVTVSS” belongs “high polyreactivity”. Take “QVQLVESGGGLVQAGGSLRLSCAASGTFWLYTMGWYRQAPGKERELVAAISLTAGNTYYADSVKGRFTISRDNAKYTVYLQMNSLKPEDTAVYYCAADHYYYTRYEYWGQGTQVTVSS”: the “polyreactivity (PSR sort gate)” value is reported as “low polyreactivity”.

For “QVQLVESGGGLVQAGGSLRLSCAASGGTFEPNAMGWYRQPPGKEREFVAAITWNGGRTNYADSVKGRFTISRDNAKNTVYLQMNSLKPEDTAVYYCAARSYTDYNYWGQGTQVTVSS”, the “polyreactivity (PSR sort gate)” value is listed as “high polyreactivity”. Under “QVQLVESGGWLVQAGGSLRLSCAASGSIFTINTMGWYRQARGKERELVAAITGSGGITYYADSVKGRFTISRDNAKNTVYLQMNSLNPVDTAVYYCAAVVYGTVRRVGWYYVGEGYDYWGQGTQVTVSS” stands “low polyreactivity”; under “QVQLVESGGGLVQAGGSLRLSCAASGSTFVRYAMGWYRQAPGKDRELVARISSAGSTNYADSVKGRFTISRDNAKNTVYLQMNSLKPEDTAVYYCAATTKAGVSSGQGDSWGQGTQVTVSS”, “low polyreactivity”.

Turning to “QFQLVESGGGLVQAGGRLRLSCAASGYTFYSYAMGWSRQAPGKERELVASITRRVGGTYYADSVKGRFTISRDNAKKTVYLQMNSLKPEDTAVYYCAAGYYHKKSSTDIEKYWGQGTQLTVSS”, the “polyreactivity (PSR sort gate)” value is listed as “low polyreactivity”.

The values above are taken from the nanobody polyreactivity screen of Harvey et al. (2022).
